The target in this assay is ligand-binding domain (LBD) of rat GluK1 (rat). Nature of the assay: crystal structure.

A word on the stoichiometry N: it is a count of units in the complex or per binding partner.

“ligand-binding domain (LBD) of rat GluK1 (domain or fragment)” registered a stoichiometry N of 2.

The values above are taken from publication doi:10.1101/2023.11.02.565302.
